Experimental data reported in US20190010193A1 (REALTA, published 2019).
Ends that are not written are not given here.

Tests used:
[1] = target: C1q (human) (UniProt P02745); test: cell-based or functional assay
[2] = target: T1, BSA (UniProt P02769 25-607); test: plates coated with C1q, calreticulin and BSA, PA peptide added (FIG. 14A)
T1 construct: Negative control

[3] = target: T2, calreticulin (UniProt P27797 18-417, limits assumed); test: as above
T2 construct: also called CRT; recombinant calreticulin
T2 sequence (looked up): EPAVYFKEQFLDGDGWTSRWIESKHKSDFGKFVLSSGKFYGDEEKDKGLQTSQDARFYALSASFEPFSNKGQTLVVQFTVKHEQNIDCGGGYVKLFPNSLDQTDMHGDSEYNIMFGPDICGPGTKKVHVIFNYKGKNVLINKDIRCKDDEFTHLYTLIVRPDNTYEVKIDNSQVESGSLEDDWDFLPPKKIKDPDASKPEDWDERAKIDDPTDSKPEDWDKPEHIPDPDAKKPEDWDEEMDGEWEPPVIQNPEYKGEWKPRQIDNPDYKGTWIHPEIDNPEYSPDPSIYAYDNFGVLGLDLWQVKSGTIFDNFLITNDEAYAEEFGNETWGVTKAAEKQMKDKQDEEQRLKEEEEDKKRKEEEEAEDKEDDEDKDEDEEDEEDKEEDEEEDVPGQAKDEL

C1q (human), sequence (P02745 23-245, chain 1 of 3): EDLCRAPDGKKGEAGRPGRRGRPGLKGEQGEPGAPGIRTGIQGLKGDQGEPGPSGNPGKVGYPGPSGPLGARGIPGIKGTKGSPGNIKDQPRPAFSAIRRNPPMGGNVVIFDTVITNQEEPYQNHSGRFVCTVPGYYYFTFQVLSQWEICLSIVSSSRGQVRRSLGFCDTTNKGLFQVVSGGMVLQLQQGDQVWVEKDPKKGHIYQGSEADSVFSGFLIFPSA
C1q (human), sequence (P02746 28-253, chain 2 of 3, further chain): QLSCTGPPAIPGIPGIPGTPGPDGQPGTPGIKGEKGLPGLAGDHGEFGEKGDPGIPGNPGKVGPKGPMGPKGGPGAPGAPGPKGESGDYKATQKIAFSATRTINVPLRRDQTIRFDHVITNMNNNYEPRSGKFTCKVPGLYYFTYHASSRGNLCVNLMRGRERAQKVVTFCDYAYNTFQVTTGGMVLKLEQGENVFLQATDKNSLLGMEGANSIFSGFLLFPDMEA
C1q (human), sequence (P02747 29-245, chain 3 of 3, further chain): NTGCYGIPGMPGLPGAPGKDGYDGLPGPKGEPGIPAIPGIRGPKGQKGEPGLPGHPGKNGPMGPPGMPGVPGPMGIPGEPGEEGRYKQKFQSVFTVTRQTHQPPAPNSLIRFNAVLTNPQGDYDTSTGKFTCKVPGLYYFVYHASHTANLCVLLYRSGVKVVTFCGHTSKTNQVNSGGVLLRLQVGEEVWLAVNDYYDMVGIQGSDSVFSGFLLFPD
T1 sequence (P02769 25-607 limits assumed): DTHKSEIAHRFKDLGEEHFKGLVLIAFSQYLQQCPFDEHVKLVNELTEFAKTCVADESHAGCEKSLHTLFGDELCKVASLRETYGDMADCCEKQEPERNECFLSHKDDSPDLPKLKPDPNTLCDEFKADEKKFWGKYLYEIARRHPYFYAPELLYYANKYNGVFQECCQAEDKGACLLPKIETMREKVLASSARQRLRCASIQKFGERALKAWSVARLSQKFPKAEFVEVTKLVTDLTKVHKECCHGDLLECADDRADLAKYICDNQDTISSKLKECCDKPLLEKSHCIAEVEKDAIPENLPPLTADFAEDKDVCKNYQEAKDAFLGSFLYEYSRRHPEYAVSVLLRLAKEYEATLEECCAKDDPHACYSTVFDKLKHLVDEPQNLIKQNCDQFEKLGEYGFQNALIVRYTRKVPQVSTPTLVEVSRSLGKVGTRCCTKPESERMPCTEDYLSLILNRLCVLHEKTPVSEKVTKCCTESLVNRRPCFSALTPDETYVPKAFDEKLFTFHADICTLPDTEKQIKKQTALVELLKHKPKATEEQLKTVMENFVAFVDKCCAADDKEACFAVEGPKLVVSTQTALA

IALILEPICCQERAA-dPEG24 (cysteine pairing not given here) [PA-dPEG24] was tested, and the Hemolysis (%), sensitized sheep RBCs, factor B-depleted human serum, peptide 0.77 mM [1] was 2.99%, the Hemolysis in presence of PA-dPEG24 (Abs 412 nm), plasma of Donor O+ #1 with B+ erythrocytes (0.747 without peptide) [1] was 0.008 Abs 412 nm and the inhibition of hemolysis of B erythrocytes by type-O plasma, dose-response (FIG. 8) [1] was over 95%.

IALILEPICCQERAA-dPEG20 (cysteine pairing not given here) [PA-dPEG20] was tested, and the Hemolysis (%), sensitized sheep RBCs, factor B-depleted human serum, peptide 0.77 mM [1] was 11.4%.

IALILEPICCQERAA-dPEG16 (cysteine pairing not given here) [PA-dPEG16] showed a Hemolysis (%), sensitized sheep RBCs, factor B-depleted human serum, peptide 0.77 mM [1] of 12%.

Binder IALILEPICCQERAA-dPEG12 (cysteine pairing not given here) [PA-dPEG12] has a Hemolysis (%), sensitized sheep RBCs, factor B-depleted human serum, peptide 0.77 mM [1] of 11.4%.

Binder IALILEPICCQERAA-dPEG08 (cysteine pairing not given here) [PA-dPEG08] has a Hemolysis (%), sensitized sheep RBCs, factor B-depleted human serum, peptide 0.77 mM [1] of 34.7%.

With IALILEPICCQERAA-dPEG06 (cysteine pairing not given here) [PA-dPEG06] the Hemolysis (%), sensitized sheep RBCs, factor B-depleted human serum, peptide 0.77 mM [1] was 44.8%.

In the case of IALILEPICCQERAA-dPEG04 (cysteine pairing not given here) [PA-dPEG04], the Hemolysis (%), sensitized sheep RBCs, factor B-depleted human serum, peptide 0.77 mM [1] is reported as 12.4%.

IALILEPICCQERAA-dPEG03 (cysteine pairing not given here) [PA-dPEG03] gave a Hemolysis (%), sensitized sheep RBCs, factor B-depleted human serum, peptide 0.77 mM [1] of 12.6%.

For IALILEPICCQERAA-dPEG02 (cysteine pairing not given here) [PA-dPEG02], the Hemolysis (%), sensitized sheep RBCs, factor B-depleted human serum, peptide 0.77 mM [1] was 11.6%.

IALILEPICCQERAA (also called PA; PIC1) [Polar Assortant peptide]: no binding [2]; no binding [3].
